Measurements from the supplement of paper PMC10567573.

B1: MMP1 (parent)
chain: MFFKDRFYMRTNPFYPEVELNFIS
B2: IFRG15 (parent)
chain: INRADYCPECYPDNPANRSLVLPW

Variants of: B1
Test: protein stability index of a GFP-peptide fusion (GPS, HEK-293T) (PSI 1-6); higher = more stable
Conditions: c terminus: a fixed tail appended
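Also: lentivirally expressed fusions sorted by FACS into six bins by GFP to DsRed ratio, PSI derived from sequencing read proportions per bin multiplied by bin number.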

Protein stability index: each site, then its substitutions
V18: G 2.08 | Y 2.64 | H 3.06 | P 3.06 | F 2.61 | I 2.84 | D 2.66 | L 2.41 | R 1.87 | T 3.87 | E 3.27 | K 3.54 | Q 2.35 | A 3.25 | S 3.28 | N 1.78 | W 3.22 | M 2.52 | C 2.99
F7: L 3.36 | Y 1.96 | A 3.4 | D 1.91 | C 2.32 | K 2.45 | W 3.2 | V 4.52 | M 2.98 | N 1.31 | P 3.98 | E 3.35 | H 2.13 | R 3.28 | Q 2.06
M1: E 2.86 | S 2.84 | H 2.05 | A 1.89 | V 3.89 | N 1.76 | K 2.94 | R 2.2 | W 3.52 | C 2.83 | F 3.03 | I 2.17 | Y 1.86 | D 2.24
R10: K 2.74 | E 2.37 | Q 2.17 | P 2.77 | D 2.14 | W 2.82 | T 2.47 | L 2.79 | H 2.42 | Y 2.63 | S 3.42 | C 3.2 | V 3 | A 1.52 | N 3.09 | M 2.88 | G 2.73
M9: H 1.83 | S 3.67 | I 2.02 | Y 3.12 | F 2.56 | V 2.71 | P 1.93 | L 1.86 | T 2.76 | W 3.91 | R 2.1 | K 2.59 | E 1.93 | C 3.4 | D 1.75 | A 1.27 | G 3.71 | Q 2.65
R6: N 2.96 | W 2.14 | M 2.35 | S 2.64 | C 2.09 | E 2.85 | V 3.16 | H 3.05 | F 2.48 | T 3.77 | L 2.39 | Q 3.4 | K 3.46 | I 3.27 | Y 3.35 | G 3.07
F3: L 2.29 | T 2.11 | K 1.83 | W 3.61 | R 1.55 | P 1.48 | S 2.9 | N 1.73 | V 2.82 | E 1.5 | Y 2.97 | Q 3.42 | I 2.64 | H 1.89 | G 4.14 | D 1.85
Y8: H 2.22 | A 2.69 | V 3.2 | W 2.96 | P 2.98 | R 2.98 | T 2.23 | E 1.89 | C 3.33 | M 2.89 | K 1.99 | G 2.07 | Q 2.87 | D 2.43 | F 2.64 | S 3.33 | N 2.17 | I 2.73
F14: Y 2.96 | D 3.86 | N 2.87 | H 2.82 | R 3.1 | Q 2.58 | E 3.46 | K 3.31 | V 3.62 | C 2.65 | T 2.33 | I 2.54 | L 2.62 | M 1.73 | A 3.69 | G 2.92
E17: H 3.02 | R 2.57 | Y 2.42 | G 2.52 | A 2.9 | T 1.84 | M 2.78 | C 4.42 | W 3.19 | L 2.55 | D 1.97 | I 3.71 | S 2.15 | N 3.69 | V 2.99 | K 2.21 | P 1.8 | F 2.19
Y15: V 2.37 | C 3.47 | L 3.33 | Q 1.34 | F 2.63 | K 2.72 | R 2.66 | W 2.93 | E 2.15 | I 3.09 | T 2.43 | G 2.09 | A 1.72 | P 2.4 | M 1.97 | S 2.69 | H 2.19 | N 2.94 | D 3.35
P16: E 3.49 | M 1.74 | L 1.75 | T 3.07 | G 3.15 | W 2.44 | F 2.88 | V 3.21 | Q 3.75 | H 2.95 | C 2.71 | S 2.96 | K 2.25 | I 3.59 | N 3.95 | Y 2.82 | R 1.98 | D 2.18
P13: D 3.62 | N 2.29 | A 2.38 | L 2.37 | S 1.94 | G 2.62 | M 2.66 | K 2.58 | I 2.85 | Q 1.76 | V 3.62 | W 3.9 | Y 2.35 | H 2.46 | R 3.31 | C 2.68
T11: D 3.5 | C 3.79 | A 3.18 | S 2.32 | G 2.64 | R 2.28 | W 3.68 | E 3.11 | L 2.72 | P 3.77 | K 3.17 | N 2.96 | I 1.63 | V 4.1 | H 1.78 | M 3.47 | Q 2.59
D5: C 3.75 | Y 2.38 | I 2.52 | W 1.94 | P 3.51 | T 3.47 | H 2.78 | E 2.63 | G 3.47 | N 2.77 | S 2.64 | M 2.63 | A 2.8 | L 2.49 | V 2.6 | Q 3.19
F2: S 2.72 | H 2.93 | L 2.36 | Q 2.26 | D 2.71 | M 2.02 | K 4.48 | C 3.01 | G 3.1 | R 4.3 | N 1.93 | T 2.29 | E 2.98 | V 2.75 | I 2.59 | P 2.06 | A 3.29
N12: D 3.11 | M 2.94 | H 2.87 | L 2.51 | P 3.4 | W 3 | T 2.56 | K 3.17 | E 4.11 | C 3.02 | R 3.81 | I 2 | Y 3.12 | Q 2.67 | S 2.74 | V 2.43 | F 3.09 | G 2.91
K4: Q 4.05 | V 1.49 | I 3.25 | G 1.72 | F 3.7 | P 2.5 | N 2.26 | M 2.3 | S 3.15 | H 3.26 | W 2.11 | Y 3.55 | R 2.56
E19: D 2.34 | G 3.69 | Q 2.3 | H 3.47 | I 3.25 | L 2.64 | K 4.43 | M 1.47 | F 3.27 | A 3.48 | C 3.18 | N 3.6 | P 3.53

Variants of: B2
Test: as above
Conditions: c terminus: a fixed tail appended

Protein stability index of substitutions, site by site:
E9: I 1.38 | S 1.86
R18: I 1.82
Y11: T 2.32
L20: V 2.44
D13: I 1.71
S19: W 1.99
P8: G 2.67
P15: Y 1.84
N14: D 2.52 | F 1.71 | H 2.52
Y6: H 3.04
C10: W 2.07
N2: M 1.88 | P 2.92
A4: R 1.83
C7: K 2.95
I1: M 2.38
P23: D 2.92
